The record followed here is US20160009812A1 (University of Texas, published 2016).

Test [1] has as its target T1, total (intracellular) vimentin of human cancer cells (human, UniProt P08670 2-466).
T1 construct: Endogenous protein in lysates or in permeabilized cells; also called total vimentin; cytoplasmic vimentin
The test is described as follows: confocal microscopy, intracellular staining.

For test [2], the target named is T2, cell-surface vimentin on mouse cancer cells (LM8) (mouse, UniProt P20152 2-466).
T2 construct: whole, on cells; also called CSV
T2 sequence (P20152 2-466): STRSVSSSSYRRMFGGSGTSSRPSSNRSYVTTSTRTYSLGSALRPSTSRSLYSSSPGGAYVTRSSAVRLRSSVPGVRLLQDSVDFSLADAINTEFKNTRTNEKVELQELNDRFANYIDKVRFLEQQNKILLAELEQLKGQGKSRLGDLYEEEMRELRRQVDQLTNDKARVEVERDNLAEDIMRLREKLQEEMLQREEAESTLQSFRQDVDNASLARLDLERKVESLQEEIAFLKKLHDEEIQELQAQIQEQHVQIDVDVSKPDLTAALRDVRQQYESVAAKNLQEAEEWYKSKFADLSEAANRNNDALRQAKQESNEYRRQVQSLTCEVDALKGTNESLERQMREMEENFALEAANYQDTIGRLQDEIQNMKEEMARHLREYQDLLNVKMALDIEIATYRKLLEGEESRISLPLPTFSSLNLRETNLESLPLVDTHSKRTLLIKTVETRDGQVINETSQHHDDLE
The test is described as follows: immunofluorescence staining of mouse LM8 cells spiked into blood. The protocol:
FIG. 2B: Detection of single cell spiked into blood using fluorescence microscopy. Single LM8 cell was isolated using serial dilution and spot analysis and spiked into 1 ml of blood. After RBC lysis, mononucleated cell population was stained for 84-1 mAb and AlexaFluor-488 secondary antibody to detect CSV positive cells. […] FIG. 2C: Isolation of single cell from whole blood. Single cell spiked into whole blood was isolated using EasySep based 84-1 positive and CD45 negative selection. This single cell was observable on the culture dish 2 hr after incubation at 37° C. FIG. 2D: Micrographs of cells isolated from blood were costained using antibodies against CSV, CD45 and a nuclear stain DRAQ5. Scale indicates 10 μm. FIG. 2E: Enumeration of CSV positive CTCs from healthy, primary and metastatic patient blood specimens. Blood from the primary cancer patients was used to select threshold of detection (dashed line).
Based on the detection of CSV in a range of cancer cell lines of both epithelial and non-epithelial origin, the inventors hypothesized that it could serve as a biomarker to detect CTC. […] From micrographs it is evident that single cell is detectable in whole blood utilizing fluorescence microscopy (FIG. 2B). […] The inventors further evaluated the sensitivity and specificity of 84-1 antibody using HLM3 and LM7 cells that are positive for 84-1 staining (Table 5).

Test [3] deals with T3, cell-surface vimentin on canine circulating tumor cells (canine, UniProt A0A8C0N8E3 2-466).
T3 construct: also called CSV
T3 sequence (A0A8C0N8E3 2-466 limits assumed): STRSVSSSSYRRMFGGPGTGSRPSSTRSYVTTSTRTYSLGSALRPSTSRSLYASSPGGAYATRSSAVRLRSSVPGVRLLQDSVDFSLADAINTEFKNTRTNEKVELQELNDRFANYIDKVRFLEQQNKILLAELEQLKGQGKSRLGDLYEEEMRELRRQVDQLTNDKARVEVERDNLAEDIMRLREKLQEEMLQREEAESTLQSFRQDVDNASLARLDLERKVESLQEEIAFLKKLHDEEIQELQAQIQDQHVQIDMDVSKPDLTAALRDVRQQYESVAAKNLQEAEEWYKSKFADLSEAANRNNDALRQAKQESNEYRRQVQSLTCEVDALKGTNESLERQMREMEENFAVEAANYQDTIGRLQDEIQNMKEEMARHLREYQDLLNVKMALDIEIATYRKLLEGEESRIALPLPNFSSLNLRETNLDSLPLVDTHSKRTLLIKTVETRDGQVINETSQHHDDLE
The test is described as follows: isolation and confocal microscopy of CTC from canine blood.

Test [4] has as its target T4, cell-surface vimentin (CSV) on human cancer cells (human, UniProt P08670 2-466).
T4 construct: whole, on cells; Endogenous vimentin on the surface of non-permeabilized cancer cells
Put plainly: screening on osteosarcoma cell lines with and without vimentin on the cell surface.

In test [5] the target is vimentin-derived peptides (10, 12 and 15 aa peptides on the peptide microarray). The test is described as follows: peptide microarray; 84-1 at 0.2 ug/mL compared with 12-1 at 1 ug/mL.

T1 sequence (P08670 2-466 limits assumed): as the sequence (A0A8C0N8E3 2-466 limits assumed) above, with G20A, T26S, A59V, S200N, D238E, D250E, M257V, N316T, A411S counted along it
T4 sequence (P08670 2-466): as the sequence (A0A8C0N8E3 2-466 limits assumed) above, with G20A, T26S, A59V, S200N, D238E, D250E, M257V, N316T, A411S counted along it

B1: 84-1 monoclonal antibody (antibody, V domains shown)
VH: QVQLKQSGPGLVQPSQSLSITCTVSGFSLTRYGVHWVRQSPGKGLEWLGVIWSGGSTDYNAAFISRLSFSKDNSKSQVFFKMNSLQANDTAIYYCARRSYYYAMDYWGQGTSVTVS
VL: DVLMTQTPLSLPVSLGDQASISCRSSQSIVHRIGNTYLEWYLQKPGQSPKLLIYKVSNRFSGVPDRFSGSGSGTDFTLKISRVEAEDLGVYYCFQGSHVPLTFGAGTKLEL
notes: Mouse monoclonal antibody from hybridoma 84-1, raised against rhVim with 6-His; It was detected with anti-mouse IgG; also called 84-1 mAb; 84-1 antibody
As to B1, the binding result in test [1], in test [2], in test [3] and in test [4] was “binds” throughout. This molecule yielded a spot intensity relative to antibody 12-1 in test [5] of 2 fold.
